Test results as given in paper PMC10681739, “High-throughput data and modeling reveal insights into the mechanisms of cooperative DNA-binding by transcription factor proteins”.

Molecular target: RUNX1 (Homo sapiens, UniProt Q01196)
Experiment: gcPBM; 2 nM RUNX1
Details: tags: N-terminal GST (pDEST15), kept (PMC6008103); label: surface-attached array probe

Chain of RUNX1 (Q01196 whole entry): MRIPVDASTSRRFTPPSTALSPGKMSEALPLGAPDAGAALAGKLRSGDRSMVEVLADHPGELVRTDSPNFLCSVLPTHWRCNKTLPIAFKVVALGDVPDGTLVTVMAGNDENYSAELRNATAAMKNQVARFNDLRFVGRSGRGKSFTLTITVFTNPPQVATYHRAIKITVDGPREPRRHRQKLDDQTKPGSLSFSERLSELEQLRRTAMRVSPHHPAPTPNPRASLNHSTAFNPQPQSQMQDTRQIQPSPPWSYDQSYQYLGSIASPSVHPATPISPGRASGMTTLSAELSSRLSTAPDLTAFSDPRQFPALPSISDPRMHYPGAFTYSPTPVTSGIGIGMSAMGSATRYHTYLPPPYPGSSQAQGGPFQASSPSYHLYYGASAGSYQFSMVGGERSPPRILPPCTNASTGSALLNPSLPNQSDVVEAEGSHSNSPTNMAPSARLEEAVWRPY

Binder | binding signal
Table S3 C row 54 (dsDNA) DNA 1: CAGACCCCGTGGGGCAGGAAGCTGCTGGGGTAGGCC DNA 2: GGCCTACCCCAGCAGCTTCCTGCCCCACGGGGTCTG | 758 PBM fluorescence, median of replicate spots
Table S3 C row 98 (dsDNA) DNA 1: TCGGCGGGGCTGTACCGGAAGTTGCCTCTACTTCTG DNA 2: CAGAAGTAGAGGCAACTTCCGGTACAGCCCCGCCGA | 759 PBM fluorescence, median of replicate spots
Table S3 C row 110 (dsDNA) DNA 1: AGCTTATCATCGTCACGGAAGCCCCGCCAGGTGGCG DNA 2: CGCCACCTGGCGGGGCTTCCGTGACGATGATAAGCT | 759 PBM fluorescence, median of replicate spots
Table S3 C row 153 (dsDNA) DNA 1: CCGCCTTCAGGGCGGCGGAAGTCGCTGGCTGCTCTT DNA 2: AAGAGCAGCCAGCGACTTCCGCCGCCCTGAAGGCGG | 759 PBM fluorescence, median of replicate spots
Table S3 C row 23 (dsDNA) DNA 1: CCCAGCCGGCCTGGACATCCGCCCCGCGCGCGGCGT DNA 2: ACGCCGCGCGCGGGGCGGATGTCCAGGCCGGCTGGG | 759 PBM fluorescence, median of replicate spots
Table S3 C row 193 (dsDNA) DNA 1: CCGACCCCGCTGCCCCGGAAGGTGAGGCAAGCCTGG DNA 2: CCAGGCTTGCCTCACCTTCCGGGGCAGCGGGGTCGG | 761 PBM fluorescence, median of replicate spots
Table S3 C row 41 (dsDNA) DNA 1: CAGACTCGGCGTCGGCTTCCGGCGGCGTCAGAGACG DNA 2: CGTCTCTGACGCCGCCGGAAGCCGACGCCGAGTCTG | 762 PBM fluorescence, median of replicate spots
Table S3 C row 108 (dsDNA) DNA 1: TCTGCCCTCCCAGCACTTCCGGGCTGGCAGAAGAGC DNA 2: GCTCTTCTGCCAGCCCGGAAGTGCTGGGAGGGCAGA | 763 PBM fluorescence, median of replicate spots
Table S3 C row 77 (dsDNA) DNA 1: TCGGGCCGGGAGCCGGTTCCGGCTGAGTCGGCAGGG DNA 2: CCCTGCCGACTCAGCCGGAACCGGCTCCCGGCCCGA | 765 PBM fluorescence, median of replicate spots
Table S3 C row 25 (dsDNA) DNA 1: CTCCAGGGGTGTCACCGGAAAAAGCCGTTTCTGGAG DNA 2: CTCCAGAAACGGCTTTTTCCGGTGACACCCCTGGAG | 765 PBM fluorescence, median of replicate spots
Table S3 C row 93 (dsDNA) DNA 1: TCCTTCCCTGGCAACAGGAAGTGAAAATGCCAGGCC DNA 2: GGCCTGGCATTTTCACTTCCTGTTGCCAGGGAAGGA | 766 PBM fluorescence, median of replicate spots
Table S3 C row 160 (dsDNA) DNA 1: ACCCCGTAGCCGGCGCTTCCTGCCGAGGCTGGGGTC DNA 2: GACCCCAGCCTCGGCAGGAAGCGCCGGCTACGGGGT | 766 PBM fluorescence, median of replicate spots
Table S3 C row 124 (dsDNA) DNA 1: ACTTGGGGCATGCAATTTCCGGCAGCACAGAAAACA DNA 2: TGTTTTCTGTGCTGCCGGAAATTGCATGCCCCAAGT | 766 PBM fluorescence, median of replicate spots
Table S3 C row 24 (dsDNA) DNA 1: CCCACGCTCTGCGTGCTTCCGGCGAGCAAAGCCCCG DNA 2: CGGGGCTTTGCTCGCCGGAAGCACGCAGAGCGTGGG | 766 PBM fluorescence, median of replicate spots
Table S3 C row 15 (dsDNA) DNA 1: CAGCCAGCCCTCGCACGGAAGCGAACTTGCTGTCAC DNA 2: GTGACAGCAAGTTCGCTTCCGTGCGAGGGCTGGCTG | 769 PBM fluorescence, median of replicate spots
Table S3 C row 102 (dsDNA) DNA 1: CCCCGCGTCCCAGACCGGAAGAAGCCCGGCGCAGAC DNA 2: GTCTGCGCCGGGCTTCTTCCGGTCTGGGACGCGGGG | 770 PBM fluorescence, median of replicate spots
Table S3 C row 112 (dsDNA) DNA 1: ACGTTGCCTCACTGCAGGAAGTGACCCAGGCCTTGC DNA 2: GCAAGGCCTGGGTCACTTCCTGCAGTGAGGCAACGT | 771 PBM fluorescence, median of replicate spots
Table S3 C row 111 (dsDNA) DNA 1: GGATCCAGGACACTCCGGAAGACATCGTGCTGGAAG DNA 2: CTTCCAGCACGATGTCTTCCGGAGTGTCCTGGATCC | 774 PBM fluorescence, median of replicate spots
Table S3 C row 148 (dsDNA) DNA 1: GGCTGCCCGTACTCCCGGAAGCCGAATCCCGGCTGG DNA 2: CCAGCCGGGATTCGGCTTCCGGGAGTACGGGCAGCC | 775 PBM fluorescence, median of replicate spots
Table S3 C row 191 (dsDNA) DNA 1: GATTGGTTCTCTAAGCTTCCGTCAGTTTACAATCCT DNA 2: AGGATTGTAAACTGACGGAAGCTTAGAGAACCAATC | 775 PBM fluorescence, median of replicate spots
Table S3 C row 86 (dsDNA) DNA 1: CGCGTGATGGACGCCCGGAAGCCGGCACAACAAATG DNA 2: CATTTGTTGTGCCGGCTTCCGGGCGTCCATCACGCG | 777 PBM fluorescence, median of replicate spots
Table S3 C row 66 (dsDNA) DNA 1: CCAGGACAGCACCTATTTCCTGCTGGTGTAACAGAG DNA 2: CTCTGTTACACCAGCAGGAAATAGGTGCTGTCCTGG | 778 PBM fluorescence, median of replicate spots
Table S3 C row 131 (dsDNA) DNA 1: AGTTGGTAGCGCCAACGGAAGCCCATGCCAAACTTG DNA 2: CAAGTTTGGCATGGGCTTCCGTTGGCGCTACCAACT | 778 PBM fluorescence, median of replicate spots

Binder | binding signal
Table S3 C row 169 (dsDNA) DNA 1: CGCGGGCCCGGCCAGCGGAAGCCCCTGCGCCCGCGC DNA 2: GCGCGGGCGCAGGGGCTTCCGCTGGCCGGGCCCGCG | 779 PBM fluorescence, median of replicate spots
Table S3 C row 97 (dsDNA) DNA 1: CACCTGCTACTCAAAGTTCCGCCTCTCTTCAGCGAG DNA 2: CTCGCTGAAGAGAGGCGGAACTTTGAGTAGCAGGTG | 779 PBM fluorescence, median of replicate spots
Table S3 C row 190 (dsDNA) DNA 1: CGCTCGTAAGTGCTCCGGATGGAATCTGGTGCAGGG DNA 2: CCCTGCACCAGATTCCATCCGGAGCACTTACGAGCG | 780 PBM fluorescence, median of replicate spots
Table S3 C row 84 (dsDNA) DNA 1: GCTTCTGGGAGAAGCCGGAAGAGACCTGACCCTGAA DNA 2: TTCAGGGTCAGGTCTCTTCCGGCTTCTCCCAGAAGC | 782 PBM fluorescence, median of replicate spots
Table S3 C row 4 (dsDNA) DNA 1: CTCTCAACCCAGCCGCTTCCTGGTTGTTCGTCGCAA DNA 2: TTGCGACGAACAACCAGGAAGCGGCTGGGTTGAGAG | 782 PBM fluorescence, median of replicate spots
Table S3 C row 95 (dsDNA) DNA 1: CGCAGGGTCACGTGACATCCTGCCTCGCCCCGCCCA DNA 2: TGGGCGGGGCGAGGCAGGATGTCACGTGACCCTGCG | 783 PBM fluorescence, median of replicate spots
Table S3 C row 99 (dsDNA) DNA 1: CGCTCCAGGGCCTCCCGGATGGCCTAGTCGGGCCCG DNA 2: CGGGCCCGACTAGGCCATCCGGGAGGCCCTGGAGCG | 786 PBM fluorescence, median of replicate spots
Table S3 C row 56 (dsDNA) DNA 1: CGCTCAGAGCTACGGCGGAAATGCCGCTCTTTTAAC DNA 2: GTTAAAAGAGCGGCATTTCCGCCGTAGCTCTGAGCG | 786 PBM fluorescence, median of replicate spots
Table S3 C row 152 (dsDNA) DNA 1: TTTCCCCGACCCCGCCGGAAGACCAGGCCGGCGCGG DNA 2: CCGCGCCGGCCTGGTCTTCCGGCGGGGTCGGGGAAA | 787 PBM fluorescence, median of replicate spots
Table S3 C row 92 (dsDNA) DNA 1: TCCCTAGTTTCTGCCCGGAAGATGGAGCCGCCATCT DNA 2: AGATGGCGGCTCCATCTTCCGGGCAGAAACTAGGGA | 788 PBM fluorescence, median of replicate spots
Table S3 C row 38 (dsDNA) DNA 1: AGTGAAACATCAGAGCTTCCTGTTACATCACTCTGA DNA 2: TCAGAGTGATGTAACAGGAAGCTCTGATGTTTCACT | 789 PBM fluorescence, median of replicate spots
Table S3 C row 155 (dsDNA) DNA 1: TCCAGGCACTATTTTCGGAAGCAGAGACACAGTGCC DNA 2: GGCACTGTGTCTCTGCTTCCGAAAATAGTGCCTGGA | 791 PBM fluorescence, median of replicate spots
Table S3 C row 14 (dsDNA) DNA 1: TCCTGCCGACGTGTTCTTCCGGTGGCGGAGCGGCGG DNA 2: CCGCCGCTCCGCCACCGGAAGAACACGTCGGCAGGA | 791 PBM fluorescence, median of replicate spots
Table S3 C row 109 (dsDNA) DNA 1: GCAGCACGCAGCAACCGGAAGTCAATGGACGAAGAC DNA 2: GTCTTCGTCCATTGACTTCCGGTTGCTGCGTGCTGC | 792 PBM fluorescence, median of replicate spots
Table S3 C row 59 (dsDNA) DNA 1: TCTTACGGGCGGGGCCGGAAGAGGGAGTCGCGCTGC DNA 2: GCAGCGCGACTCCCTCTTCCGGCCCCGCCCGTAAGA | 793 PBM fluorescence, median of replicate spots
Table S3 C row 28 (dsDNA) DNA 1: GTTCCTAGTCCGCTCCGGAAATGCAACTGCGTACGG DNA 2: CCGTACGCAGTTGCATTTCCGGAGCGGACTAGGAAC | 793 PBM fluorescence, median of replicate spots
Table S3 C row 195 (dsDNA) DNA 1: TCGCGCTGGACGAAGCGGAAGAAGATGGCGCTCACC DNA 2: GGTGAGCGCCATCTTCTTCCGCTTCGTCCAGCGCGA | 794 PBM fluorescence, median of replicate spots
Table S3 C row 80 (dsDNA) DNA 1: CAAAAGGGCTGCCAGTTTCCGCCCCTTCTAGCGAGC DNA 2: GCTCGCTAGAAGGGGCGGAAACTGGCAGCCCTTTTG | 794 PBM fluorescence, median of replicate spots
Table S3 C row 91 (dsDNA) DNA 1: CACATACTACTACAACTTCCGGCAGGCTCCGCGCCC DNA 2: GGGCGCGGAGCCTGCCGGAAGTTGTAGTAGTATGTG | 795 PBM fluorescence, median of replicate spots
Table S3 C row 17 (dsDNA) DNA 1: CGCGGGTCATGTGACCGGAAGGGCTCCTCACGGACG DNA 2: CGTCCGTGAGGAGCCCTTCCGGTCACATGACCCGCG | 798 PBM fluorescence, median of replicate spots
Table S3 C row 40 (dsDNA) DNA 1: GCACCTGTATTGCCGTTTCCGGTTCGCCTTCGGAGC DNA 2: GCTCCGAAGGCGAACCGGAAACGGCAATACAGGTGC | 799 PBM fluorescence, median of replicate spots
Table S3 C row 159 (dsDNA) DNA 1: GTAAATACACTCATGTTTCCGCTCTCAGCCGTCAGT DNA 2: ACTGACGGCTGAGAGCGGAAACATGAGTGTATTTAC | 801 PBM fluorescence, median of replicate spots
